Data reported in patent US20210380678A1 (published 2021).
Each block holds one binder with its values, some of them ahead of it.

Tests used:
[1] = molecular target: T1, human ASGR1 extracellular domain (hASGR1 ECD) (UniProt P07306 62-291, biotinylated (His-Avi tag)); experiment: BLI
T1 chain: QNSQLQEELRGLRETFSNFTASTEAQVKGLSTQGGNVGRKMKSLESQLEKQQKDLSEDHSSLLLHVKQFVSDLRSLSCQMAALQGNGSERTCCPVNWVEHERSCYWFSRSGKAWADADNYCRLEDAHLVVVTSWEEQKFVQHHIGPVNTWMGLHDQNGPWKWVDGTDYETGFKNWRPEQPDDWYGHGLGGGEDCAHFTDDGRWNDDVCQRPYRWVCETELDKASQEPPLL

[2] = molecular target: T2, mouse ASGR1 extracellular domain (mASGR1 ECD) (biotinylated (His-Avi tag)); experiment: BLI
T2 chain: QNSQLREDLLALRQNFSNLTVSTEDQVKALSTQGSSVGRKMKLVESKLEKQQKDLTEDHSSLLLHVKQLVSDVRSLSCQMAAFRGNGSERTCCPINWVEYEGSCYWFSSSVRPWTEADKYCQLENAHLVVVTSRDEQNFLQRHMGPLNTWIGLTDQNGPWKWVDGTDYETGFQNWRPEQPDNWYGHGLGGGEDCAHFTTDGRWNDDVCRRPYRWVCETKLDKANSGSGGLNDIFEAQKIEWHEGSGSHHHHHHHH

[3] = molecular target: T1, human ASGR1 extracellular domain …; experiment: BLI
[4] = molecular target: T3, human ASGR2 extracellular domain (hASGR2 ECD) (UniProt P07307 86-311, biotinylated (His/Avi tag)); experiment: BLI
T3 chain: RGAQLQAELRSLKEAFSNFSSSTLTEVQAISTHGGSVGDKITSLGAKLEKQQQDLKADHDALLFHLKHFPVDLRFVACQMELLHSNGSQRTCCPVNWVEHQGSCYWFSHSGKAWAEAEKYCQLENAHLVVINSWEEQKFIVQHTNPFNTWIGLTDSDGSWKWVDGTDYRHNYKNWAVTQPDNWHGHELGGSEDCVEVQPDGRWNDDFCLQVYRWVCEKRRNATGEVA

[5] = molecular target: T1, human ASGR1 extracellular domain …; experiment: BLI; steady-state fit
[6] = molecular target: T4, human ZNRF3 extracellular domain (hZNRF3 ECD) (UniProt Q9ULT6 56-219, biotinylated (His-Avi tag)); experiment: BLI; steady-state fit
T4 chain: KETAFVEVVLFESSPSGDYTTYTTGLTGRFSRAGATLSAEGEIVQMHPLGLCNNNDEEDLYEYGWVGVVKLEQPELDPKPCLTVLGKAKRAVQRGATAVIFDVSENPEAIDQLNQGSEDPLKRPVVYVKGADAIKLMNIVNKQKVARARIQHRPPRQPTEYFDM

[7] = molecular target: T5, human RNF43 extracellular domain (hRNF43 ECD) (UniProt Q68DV7 44-197, biotinylated (His-Avi tag)); experiment: BLI; steady-state fit
T5 chain: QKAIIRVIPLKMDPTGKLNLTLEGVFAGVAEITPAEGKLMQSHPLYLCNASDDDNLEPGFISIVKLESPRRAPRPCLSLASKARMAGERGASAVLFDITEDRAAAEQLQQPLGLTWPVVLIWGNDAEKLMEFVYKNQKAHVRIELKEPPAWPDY

[8] = molecular target: T6, Fc portion of human IgG1-fused LGR5-ECD (R&D systems) (UniProt O75473 22-557); experiment: BLI steady-state
T6 chain: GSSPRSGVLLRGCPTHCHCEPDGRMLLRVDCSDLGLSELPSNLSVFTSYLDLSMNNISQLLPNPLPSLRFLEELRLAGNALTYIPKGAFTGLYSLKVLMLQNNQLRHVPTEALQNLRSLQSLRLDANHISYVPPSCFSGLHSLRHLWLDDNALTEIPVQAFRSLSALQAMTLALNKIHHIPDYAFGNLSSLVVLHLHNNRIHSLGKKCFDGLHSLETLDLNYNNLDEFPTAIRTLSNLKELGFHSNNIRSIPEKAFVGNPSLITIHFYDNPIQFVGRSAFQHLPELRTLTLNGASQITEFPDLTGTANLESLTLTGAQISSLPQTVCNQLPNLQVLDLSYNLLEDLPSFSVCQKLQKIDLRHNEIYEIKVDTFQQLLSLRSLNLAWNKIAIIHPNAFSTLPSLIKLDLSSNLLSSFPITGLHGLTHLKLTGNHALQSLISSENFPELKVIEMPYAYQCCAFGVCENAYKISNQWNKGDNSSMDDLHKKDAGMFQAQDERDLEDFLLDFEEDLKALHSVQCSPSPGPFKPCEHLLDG

[9] = molecular target: T5, human RNF43 extracellular domain …; experiment: BLI steady-state
[10] = molecular target: T4, human ZNRF3 extracellular domain …; experiment: BLI steady-state

B1: LP1-2I13 Fab (Fab, V domains shown)
VH: EVQLVESGGGLVKPGGSRKLSCAASGFTFSDYGMHWVRQAPEKGLEWVAYISSGSSTIYYADTVKGRFTISRDNAKNTLFLQMTSLRSEDTAMYYCSRKGGFGDYEKSYAMDYWGQGTSVTVSS
VL: DIQMTQSPASLSASVGETVTITCRASENIYSYLVWYQQKQGKSPQLLVYNAKTLAEGVPSRFSGSGSGTQFSLKINSLQPEDFGSYYCQHHYGTWTFGGGIKLEIK
- Kd [1]: 7.3 nM

B3: Abv-10B8 Fab (Fab, V domains shown)
VH: DVKLVESGEGLVKPGGSLKLSCAASGFTFSSYAMSWVRQTPEKRLEWVAYISSGGDYIYYVDTVKGRFTISRDNARNTLYLQMSSLKSEDTAVYYCTREGTGGMDYWGQGTSVTVSS
VL: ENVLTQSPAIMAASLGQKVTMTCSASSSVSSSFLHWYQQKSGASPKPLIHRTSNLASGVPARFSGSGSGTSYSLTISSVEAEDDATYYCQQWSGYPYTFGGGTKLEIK
- Kd [4]: 230 nM

B5: 024S-E03 Fab (Fab, V domains shown)
VH: QVQLQQSGPGLVKPSQTLSLTCAISGASVSSNSAAWNWIRQSPSRGLEWLGRTYYRSKWYNDYAVSVKSRITINPDTSKNQFSLQLNSVTPGDTAVYYCARWNHEEHYFDYWGQGTLVTVSS
VL: DVVMTQSPATLSFSPGERATLSCRASQSVGSYLAWYQQRPGQAPRPLIYDATNRATGIPTRFSGSGSGTDFTLTISSLEPEDFATYYCQHRRTFGRGTKLEIK
- Kd [5]: 180 nM

B6: 024S-A04 Fab (Fab, V domains shown)
VH: QVQLQQSGPGLVKPSQTLSLTCAISGDSVSSNSVAWNWMRQSPSRGLEWLGRTYYRSKWYYDYAVSVKSRITINPDTSKNQFSLQLNSVTPEDTAVYYCASWTRGAFDIWGQGTMVTVSS
VL: DIQLTQSPATLSFSPGERATLSCRASQSVGSYLAWYQQRPGQAPRPLIYDATNRATGIPTRFSGSGSGTDFTLTISSLEPEDFATYYCQHRRTFGRGTKLEIK
- Kd [5]: 100 nM

B7: 024S-D03 Fab (Fab, V domains shown)
VH: QVQLQQSGPGLVKPSQTLSLTCAISGDSVSSNSAAWNWMRQSPSRGLEWLGRTYYRSKWYNDYAVSVKSRMTINPDTSRNQFSLQLNSVTLEDTAVYYCARWNHEEHYFDYWGQGTLVTVSS
VL: EIVLTQSPATLSFSPGERATLSCRASQSVGSYLAWYQQRPGQAPRPLIYDATNRATGIPTRFSGSGSGTDFTLTISSLEPEDFATYYCQHRRTFGRGTKLEIK
- Kd [5]: 130 nM

B12: Abv-3D11 Fab (Fab, V domains shown)
VH: EVQLVESGGGLVQPKGSLKLSCAASGFSFNTYAMNWVRQAPGKGLEWVARIRSKSNNYATYYADSVKDRFTISRDDSESMLYLQMNNLKTEDTAMYYCVRPRYDYWYFDVWGTGTTVTVSS
VL: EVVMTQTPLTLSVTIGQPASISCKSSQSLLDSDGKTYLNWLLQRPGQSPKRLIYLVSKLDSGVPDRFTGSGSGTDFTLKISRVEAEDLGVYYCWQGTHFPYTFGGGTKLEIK
- Kd [4]: 110 nM

The next lines start with the values.

- Kd [2]: 213 nM
- Kd [3]: 349 nM
B2: anti-ASGR1 Fab (Fab, V domains shown)
VH: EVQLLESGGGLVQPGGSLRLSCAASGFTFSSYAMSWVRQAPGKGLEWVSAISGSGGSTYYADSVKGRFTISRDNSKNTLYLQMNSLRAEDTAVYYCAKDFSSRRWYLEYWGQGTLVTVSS
VL: DIELTQDPAVSVALGQTVRITCQGDSLRSYYASWYQQKPGQAPVLVIYGKNNRPSGIPDRFSGSSSGNTASLTITGAQAEDEADYYCNSLERIGYLSYVFGGGTKLTVLG

- Kd [1]: 0.17 nM
B4: LP1-8M24 Fab (Fab, V domains shown)
VH: QVQLQQSGAELARPGASVKLSCKASGYTFTNYGINWVKQRTGQGLEWIGEIFPRSDNTFYNEKFKGKATLTADKSSTTAYMELRSLTSEDSAVYFCARKGRDYGTSHYFDYWGQGTTLTVSS
VL: DIQMTQSPASLSVSVGETVTITCRISENIYSNLAWYQQKQGKSPHLLVYAAINLADGVPSRFSGSGSGTQFSLKINSLQSEDFGSYYCQHFWGTPFTFGSGTKLEIK

- Kd [6]: 72 nM
- Kd [7]: 44 nM
- Kd [8]: 5 nM
B8: αTFR1-RSPO2-WT (anti-TFR1, RSPO2 wild type) (other)
chain: QVQLQQSGPELVRPGVSVKISCKGSGYTFTDYAMHWVKQSHAKSLEWIGGISTYFGRTNYNQKFKGRATMTVDKSSSTAYMELARLTSEDSALYYCARGLSGNYVMDYWGQGTSVTVSSGGGGSGGGGSGGGGSDIVLFQSPASLAVSLGQRATISCRASESVDDYGNSFMHWYQQKPGQPPKLLIYRASNLESGIPARFSGSGSRTDFTLTINPVEADDVATYYCQQSNEAPPTFGGGTKLEIRGSGGSNPICKGCLSCSKDNGCSRCQQKLFFFLRREGMRQYGECLHSCPSGYYGHRAPDMNRCARCRIENCDSCFSKDFCTKCKVGFYLHRGRCFDECPDGFAPLEETMECVEGGDYKDDDDKGSHHHHHHHH

- Kd [6]: 75 nM
- Kd [7]: 45 nM
B9: αTFR1-RSPO2-RA (anti-TFR1, RSPO2 (F105R/F109A)) (other)
chain: QVQLQQSGPELVRPGVSVKISCKGSGYTFTDYAMHWVKQSHAKSLEWIGGISTYFGRTNYNQKFKGRATMTVDKSSSTAYMELARLTSEDSALYYCARGLSGNYVMDYWGQGTSVTVSSGGGGSGGGGSGGGGSDIVLFQSPASLAVSLGQRATISCRASESVDDYGNSFMHWYQQKPGQPPKLLIYRASNLESGIPARFSGSGSRTDFTLTINPVEADDVATYYCQQSNEAPPTFGGGTKLEIRGSGGSNPICKGCLSCSKDNGCSRCQQKLFFFLRREGMRQYGECLHSCPSGYYGHRAPDMNRCARCRIENCDSCRSKDACTKCKVGFYLHRGRCFDECPDGFAPLEETMECVEGGDYKDDDDKGSHHHHHHHH

- Kd [9]: 31 nM
- Kd [10]: 170 nM
B10: αGFP-RSPO2-RA (anti-GFP, RSPO2 (F105R/F109A)) (other)
chain: QVQLVESGGGLVQPGGSLRLSCAASGFTFSRYGMHWVRQAPGKGLEWVSGISSIGSNTYYADSVKGRFTISRDNSKNTLYLQMNSLRAEDTAVYYCARWYKTYIDVWGQGTLVTVSSGGGGSGGGGSGGGGSDIELTQPPSVSVAPGQTARISCSGDNLGKKYVYWYQQKPGQAPVLVIYGDDERPSGIPERFSGSNSGNTATLTISGTQAEDEADYYCASYDSSHILIVFGGGTKLTVLGSGGSNPICKGCLSCSKDNGCSRCQQKLFFFLRREGMRQYGECLHSCPSGYYGHRAPDMNRCARCRIENCDSCRSKDACTKCKVGFYLHRGRCFDECPDGFAPLEETMECVEGGDYKDDDDKGSHHHHHHHH

- Kd [9]: 42 nM
- Kd [10]: 160 nM
B11: αGFP-RSPO2-WT (anti-GFP, RSPO2 wild type) (other)
chain: QVQLVESGGGLVQPGGSLRLSCAASGFTFSRYGMHWVRQAPGKGLEWVSGISSIGSNTYYADSVKGRFTISRDNSKNTLYLQMNSLRAEDTAVYYCARWYKTYIDVWGQGTLVTVSSGGGGSGGGGSGGGGSDIELTQPPSVSVAPGQTARISCSGDNLGKKYVYWYQQKPGQAPVLVIYGDDERPSGIPERFSGSNSGNTATLTISGTQAEDEADYYCASYDSSHILIVFGGGTKLTVLGSGGSNPICKGCLSCSKDNGCSRCQQKLFFFLRREGMRQYGECLHSCPSGYYGHRAPDMNRCARCRIENCDSCFSKDFCTKCKVGFYLHRGRCFDECPDGFAPLEETMECVEGGDYKDDDDKGSHHHHHHHH
